From US20210024654A1 (AMPHIVENA THERAPEUTICS, published 2021) come the findings set out here.

To fix the notation:
B1: CD33/CD3 tandem diabody 20 (bispecific antibody)
chain: DIQMTQSPSSLSASVGDRVTITCRSSTGAVTTSNYANWVQQKPGKAPKGLIGGTNKRAPGVPSRFSGSLIGTDFTLTISSLQPEDFATYYCALWYSNLWVFGQGTKVEIKGGSGGSQVQLVQSGAEVKKPGASVKVSCKASGYTFTSYYMHWVRQAPGQGLEWMGIINPSGGSTSYAQKFQGRVTMTRDTSTSTVYMELSSLRSEDTAVYYCARDVVPAAIDYYGMDVWGQGTTVTVSSGGSGQSVLTQPPSASGTPGQRVTISCSGSSSNIGSNTVNWYQQLPGTAPKLLIYSDNQRPSGVPDRFSGSKSGSSASLAISGLQSDDEADYYCATWDDSLNGAVFGGGTKLTVLGGSGGSEVQLVESGGGLVQPGGSLRLSCAASGFTFSTYAMNWVRQAPGKGLEWVGRIRSKYNNYATYYADSVKDRFTISRDDSKNSLYLQMNSLKTEDTAVYYCARHGNFGNSYVSWFAYWGQGTLVTVSS
B2: CD33/CD3 tandem diabody 14 (bispecific antibody)
chain: DIQMTQSPSSLSASVGDRVTITCRSSTGAVTTSNYANWVQQKPGKAPKALIGGTNKRAPGVPSRFSGSLIGDKATLTISSLQPEDFATYYCALWYSNLWVFGQGTKVEIKGGSGGSQVQLVQSGAEVKKPGASVKVSCKASGYTFTSYDINWVRQAPGQGLEWMGWMNPNSGNTGFAQKFQGRVTMTRDTSTSTVYMELSSLRSEDTAVYYCARDRANTDFSYGMDVWGQGTLVTVSSGGSGQSVLTQPPSASGTPGQRVTISCSGSRSNIGSNTVNWYQQLPGTAPKLLIYGNNQRPSGVPDRFSGSKSGSSASLAISGLQSEDEADYYCATWDDSLIGWVFGGGTKLTVLGGSGGSEVQLVESGGGLVQPGGSLRLSCAASGFTFSTYAMNWVRQAPGKGLEWVGRIRSKYNNYATYYADSVKDRFTISRDDSKNSLYLQMNSLKTEDTAVYYCARHGNFGNSYVSYFAYWGQGTLVTVSSAAAGSHHHHHH
B3: CD33/CD3 tandem diabody 15 (bispecific antibody)
chain: B2 chain with F221Y, Y223F, S312T
B4: CD33/CD3 tandem diabody 16 (bispecific antibody)
chain: B2 chain with F221Y, Y223L, S312T
B5: CD33/CD3 tandem diabody 19 (bispecific antibody)
chain: DIQMTQSPSSLSASVGDRVTITCRSSTGAVTTSNYANWVQQKPGKAPKALIGGTNKRAPGVPSRFSGSLIGDKATLTISSLQPEDFATYYCALWYSNLWVFGQGTKVEIKGGSGGSQVQLVQSGAEVKKPGASVKVSCKASGYTFTSYYMHWVRQAPGQGLEWMGIINPSGGSTSYAQKFQGRVTMTRDTSTSTVYMELSSLRSEDTAVYYCARDVVPAAIDYYGMDVWGQGTTVTVSSGGSGQSVLTQPPSASGTPGQRVTISCSGSSSNIGSNTVNWYQQLPGTAPKLLIYSDNQRPSGVPDRFSGSKSGSSASLAISGLQSDDEADYYCATWDDSLNGAVFGGGTKLTVLGGSGGSEVQLVESGGGLVQPGGSLRLSCAASGFTFSTYAMNWVRQAPGKGLEWVGRIRSKYNNYATYYADSVKDRFTISRDDSKNSLYLQMNSLKTEDTAVYYCARHGNFGNSYVSYFAYWGQGTLVTVSSAAAGSHHHHHH
B6: CD33/CD3 tandem diabody 18 (bispecific antibody)
chain: EVQLVESGGGLVQPGGSLRLSCAASGFTFSTYAMNWVRQAPGKGLEWVGRIRSKYNNYATYYADSVKDRFTISRDDSKNSLYLQMNSLKTEDTAVYYCARHGNFGNSYVSYFAYWGQGTLVTVSSGGSGGSQSVLTQPPSVSGAPGQRVTISCTGSSSNIGAGYDVHWYQQLPGTAPKLLIYGNSNRPSGVPDRFSGSKSGTSASLAITGLQAEDEADYYCQSYDSSLSDVVFGGGTKLTVLGGSGQVQLVQSGAEVKKPGESLKISCKGSGYSFTSYWIGWVRQMPGKGLEWMGIIYPGDSDTRYSPSFQGQVTISADKSISTAYLQWSSLKASDTAMYYCARHKRGSDAFDIWGQGTTVTVSSGGSGGSDIQMTQSPSSLSASVGDRVTITCRSSTGAVTTSNYANWVQQKPGKAPKALIGGTNKRAPGVPSRFSGSLIGDKATLTISSLQPEDFATYYCALWYSNLWVFGQGTKVEIKAAAGSHHHHHH
B7: CD33/CD3 tandem diabody 17 (bispecific antibody)
chain: DIQMTQSPSSLSASVGDRVTITCRSSTGAVTTSNYANWVQQKPGKAPKALIGGTNKRAPGVPSRFSGSLIGDKATLTISSLQPEDFATYYCALWYSNLWVFGQGTKVEIKGGSGGSQVQLVQSGAEVKKPGESLKISCKGSGYSFTSYWIGWVRQMPGKGLEWMGIIYPGDSDTRYSPSFQGQVTISADKSISTAYLQWSSLKASDTAMYYCARHKRGSDAFDIWGQGTTVTVSSGGSGQSVLTQPPSVSGAPGQRVTISCTGSSSNIGAGYDVHWYQQLPGTAPKLLIYGNSNRPSGVPDRFSGSKSGTSASLAITGLQAEDEADYYCQSYDSSLSDVVFGGGTKLTVLGGSGGSEVQLVESGGGLVQPGGSLRLSCAASGFTFSTYAMNWVRQAPGKGLEWVGRIRSKYNNYATYYADSVKDRFTISRDDSKNSLYLQMNSLKTEDTAVYYCARHGNFGNSYVSYFAYWGQGTLVTVSSAAAGSHHHHHH

Substitutions are numbered along the chain they refer to.

human CD3, sequence (P07766 23-207): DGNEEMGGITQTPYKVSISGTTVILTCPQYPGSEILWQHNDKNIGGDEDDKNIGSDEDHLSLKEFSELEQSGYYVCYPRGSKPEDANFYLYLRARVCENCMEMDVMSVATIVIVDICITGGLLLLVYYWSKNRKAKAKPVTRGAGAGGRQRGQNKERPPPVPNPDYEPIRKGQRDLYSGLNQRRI

One test has as its target human CD3 (human, UniProt P07766 23-207). Nature of the test: cell-based or functional assay.
Regarding B1, the “T cell Proliferation in PBMC EC50” value was found to be 0.038 nM.

A further test addresses cynomolgus CD33 (cynomolgus). The experiment in a line: flow cytometry KDs on CHO cells, cyno CD33 / human CD33.
Take B2: the KD ratio CynoCD33/huCD33 is 1.
Still for that read-out and setting: in the case of B3 it was 1.1.
Consider B4, for which the KD ratio CynoCD33/huCD33 is 1.4.
The same measure, in the same setting: in the case of B5 it was 37.3.
As for B6, the KD ratio CynoCD33/huCD33 worked out at 3.1.
The same measure, in the same setting: in the case of B7 it was 1.9; in that of B1, 33.8.
